The results in this text go back to the DeepSol protein solubility set.

The data set is described as follows: soluble on expression in E. coli; label from the status in PepcDB or PDB records.
Turning to “MIVDTSVWIAYLSTSESLASRWLADRIAADSTVIVPEVVMMELLIGKTDEDTAALRRRLLQRFAIEPLAPVRDAEDAAAIHRRCRRGGDTVRSLIDCQVAAMALRIGVAVAHRDRDYEAIRTHCGLRTEPLF”, the “soluble on expression in E. coli” value is “not soluble”. As to “MNANCSSTAAVICEKKLHRPYSKHCPKHWVYNKETQACYRTISKTNMTILEADNKCFDYGFEHRQDAMLTSIESESENQFVMNLAKEKDANFEFIYLGGYGRSRNGNKWHWMDGSEFNYMNWDRGMPFGRRALAVLVMNKRGKWINHYADKILSQYNAVAVCKFKS”, the “soluble on expression in E. coli” value was “not soluble”. The entry for “MSLRITGPYQSFARYETALLGFLSHASGMATAALAARRAAPDSHLLSFGARHVHPSIAAVVERAALIGGFDGFSHVAAGDVLDREPGGTMPHALVICFGRGNQEAAWRAFTDGVGDDVPRIALCDTYSDEKDEVLRAVDELGDDLDAVRLDTTSSRRGDFRHIAREVQWALDAGGNSDVSVFVSGGLTPTDLRGLRDVVDGFGVGGFVSNATPVDFGLDIVEVAGEPAAKRGKLSGTKAVYRTPDGGHHVALASQPAPADATALLEPLLVDGTVSMAFDIDDAAARARQDARAVSFRQEGHHHHHH” is “soluble”; for “GPGSMTALSLALGIHDQATTKFGSKDFCDAVEAEAAAANAHQYRMFLLAMETLLQRQWEHYCFHGGNHITKSQQLEEKRLCRYFSVHCMNMEGRGCRDERKHRKLFGSGAAGPLIDFIYRLICHSHCSIECYPITLALTGRFFVEMRKESVATEYEAAVDHLPCVFAVLLLITAKYRDDNFRSNRYFSQLAELSLMEWNALERLVIRVLRFNVNVPFYEYVAYEKLLLKEMMRQEEKKCGFPSIDQSPRSEKMESLMHLDSKNDMSMLFFDHVEMAMKDNASFHSCGVTASSPSLRSQCPLMSVEDSPVSWRQGV” it is “not soluble”. The same measure for “MGSDKIHHHHHHMEVDNKRRHSEDELKQEAVKKIKSQEPNYAYLETVVREKLDFDSEKICCITLSPLNVYCCLVCGHYYQGRHEKSPAFIHSIDENHHVFLNLTSLKFYMLPQNVQILHDGEVQLLNSIKFAAYPTYCPKDLEDFPRQCFDLSNRTYLNGFIGFTNAATYDYAHSVLLLISHMVPVRDHFLLNHFDNQGEFIKRLSICVKKIWSPKLFKHHLSVDDFVSYLKVREGLNLNPIDPRLFLLWLFNKICSSSNDLKSILNHSCKGKVKIAKVENKPEASESVTGKVIVKPFWVLTLDLPEFSPFEDGNSVDDLPQINITKLLTKFTKSRSSSTSTVFELTRLPQFLIFHFNRFDRNSDHPVKNRNQTLVEFSSELEILHVKYRLKANVVHVVIKQPSTDGNAFNGDEKSHWITQLYDNKSEKWIEIDGINTTEREAELLFLKETFIQVWEKQE”: “not soluble”; for “ANIQSFSFKNFNSPSFILQGDATVSSGKLQLTKVKENGIPTPSSLGRAFYSSPIQIYDKSTGAVASWATSFTVKISAPSKASFADGIAFALVPVGSEPRRNGGYLGVFDSDVYNNSAQTVAVEFDTLSNSGWDPSMKHIGIDVNSIKSIATVSWDLANGENAEILITYNAATSLLVASLVHPSRRTSYILSERVDITNELPEYVSVGFSATTGLSEGYIETHDVLSWSFASKLPDDSTAEPLDLASYLVRNVL”: “soluble”. The same measure for “MGSDKIHHHHHHMFEWVEKISFSEASPLTAQAQDNKFGFHRKRPEVMAHSHWHGHIEINYLFDCSADYLINGQEISVPEGRMIIFWASIPHQMTACHGDGEIVNIYIPLQAFLTWMLPGEFVSQLLHGEVMVSDSLYVCDRQLTQIWEADIASQEPLLASQVINEIRNRIRRMAIEHYSTFNLAHRSGHGVDKPVFGGLNHIQTMLRYIADHYDQKITIENVAMSTGLHKNYAMKLFNRVMKVSIKQYINQLRLQHAQALLIDTENPVLNIALEAGFGSVSRFYDIFQREFNMSPLEFRRRVG”: “not soluble”. As to “MSLIAPLLVIEDEPAVMSFVRRALERGGYTVVGANSGMQALELLKGQQFQGIISDMRTPGNVDGGGVYHWIREHRPELANRIVFITGDIVNEETVAVLKETGAPCVEKPFRVQDLIATVENTIGKPQQETEGHHHHHH”, the “soluble on expression in E. coli” value was “soluble”. The entry for “MLNADLKQQLKQLLELMEGNVEFVASLGSDDKSKELKDLLTEITDMSPRLSLSEKSLKRTPSFSVNRPGEETGVTFAGIPLGHEFNSLVLAILQVSGRAPKEKQSIIDQIKKLEGSFHFETFISLTCQKCPDVVQALNLMSVINPNITHSMIDGAVFREESENIMAVPAVFLNGEEFGNGRMTIQDILSKLGSTADASEFENKEPYDVLIVGGGPASGSAAIYTARKGLRTGIVADRIGGQVNDTAGIENFITVKETTGSEFSSNLAAHIDQYDIDAMTGIRATDIEKTDEAIKVTLENGAVLESKTVIIATGAGWRKLNIPGEEQLINKGVAFCPHCDGPLFENKDVAVIGGGNSGVEAAIDLAGIVNHVTLFEFASELKADNVLQDRLRSLSNVDIKTNAKTTEVVGEDHVTGIRYEDMNTGEEHLLNLDGIFVQIGLLPNTSWLNDAVELNERGEIVIDRNNNTNVPGIFAAGDVTDQKNKQIIISMGAGANAALNAFDYIIRN” is “not soluble”; for “MGSSHHHHHHGKTIFVIVPTNEEQVAFLEALAKQDELNFDWQNPPTEPGQPVVILIPSDMVEWFLEMLKAKGIPFTVYVEEGGSENLYFQGGGGGGAKDCITRGPNSMIAWKYEDGSFQCDNCIGAHAVGVSSGTVRRRWTEYDKDRNILNSFVEEHREGKKLVLHDESRGMSILLRSDLSGIRTEGEQTFRQLYSGAFISVVDCT” it is “soluble”. As to “MLDANKLQQAVDQAYTQFHSLNGGQNADYIPFLANVPGQLAAVAIVTCDGNVYSAGDSDYRFALESISKVCTLALALEDVGPQAVQDKIGADPTGLPFNSVIALELHGGKPLSPLVNAGAIATTSLINAENVEQRWQRILHIQQQLAGEQVALSDEVNQSEQTTNFHNRAIAWLLYSAGYLYCDAMEACDVYTRQCSTLLNTIELATLGATLAAGGVNPLTHKRVLQADNVPYILAEMMMEGLYGRSGDWAYRVGLPGKSGVGGGILAVVPGVMGIAAFSPPLDEDGNSVRGQKMVASVAKQLGYNVFKGLEHHHHHH”, the “soluble on expression in E. coli” value was “not soluble”.

With “MGSDKIHHHHHHMFEKRVLKIKGGSNFRDLGGYQTHDGKKILWGRLFRGSALNNFTNHDLRVLKRRHINTIIDFRSLDESLNDPDIYPETSNDIRLTVLDQDTTYSTITPEEFHRLSHSNGFAYKQMMNTYRRLITDEFSQQAYRQFFDYLLNQDDGAILFHCTKGKDRTGIATALFFLAVGIDKKTIFQDYLLTDTYNHEQTEVELERMVERGEDDDDIDNVKHFLLTDRNYLENAFAAMDEIAGSPQAYLKKYLGLSDEKIQILRNKYLS”, the “soluble on expression in E. coli” value is recorded as “not soluble”. As to “MMKPNIDFKRLKAYVQANGSYSLVVKGDSIEVHFSPNFPEAIPHLPDNLPVEHIMYGKVENGIVYFYRFETISSFGTTYNDLTDDDPIMEWLKYI”, the “soluble on expression in E. coli” value is given as “not soluble”.

As to “RHVTGVHSPTKPASYSVKWTIEEKELFEQGLAKFGRRWTKISKLIGSRTVLQVKSYARQYFKNKVKCGLDKETPNQKTGHNLQVKNEDKGTKAWTPSCLRGRADPNLNAVKIEKLSDDEEVDITDEVDELSSQTPQKNSSSDLLLDFPNSKMHETNQGEFIASDSQEALFSKSSRGCLQNEKQDETLSSSEITLWTEKQSNGDKKSIELNDQKFNELIKNCNKHDGRGIIVDARQLPSPEPCEIQKNLNDNEMLFHSCQMVEESHEEEELKPPEQEIEIDRNIIQEEEKQAIPEFFEGRQAKTPERYLKIRNYILDQWEICKPKYLNKTSVRPGLKNCGDVNCIGRIHTYLELIGAINFGCEQAVYNRPQTVDKVRIRDRKDAVEAYQLAQRLQSMRTRRRRVRDPWGNWCDAKDLEGQTFEHLSAEELAKRREEEKGRPVKSLKVPRPTKSSFDPFQLIPCNFFSEEKQEPFQVKVASEALLIMDLHAHVSMAEVIGLLGGRYSEVDKVVEVCAAEPCNSLSTGLQCEMDPVSQTQASETLAVRGFSVIGWYHSHPAFDPNPSLRDIDTQAKYQSYFSRGGAKFIGMIVSPYNRNNPLPYSQITCLVISEEISPDGSYRLPYKFEVQQMLEEPQWGLVFEKTRWIIEKYRLSHSSVPMDKIFRRDSDLTCLQKLLECMRKTLSKVTNCFMAEEFLTEIENLFLSNYKSNQENGVTEENCTKELLM”, the “soluble on expression in E. coli” value is listed as “soluble”.

For the sequence “MADWVTGKVTKVQNWTDALFSLTVHAPINPFTAGQFTKLGLEIDGERVQRAYSYVNAPDNPNLEFYLVTVPQGKLSPRLAALKPGDEVQVVSDASGFFVLDEVPDCETLWMLATGTAIGPYLSILQYGQDVARFKNLVLVHAARFAADLSYLPLMLELQQRYEGKLRIQTVVSRENVPGSLTGRVPALIENGELEKAVGLPMDKETSHVMLCGNPQMVRDTQQLLKETRQMTKHLRRRPGHMTAEHYW”, the “soluble on expression in E. coli” value is recorded as “not soluble”. The entry for “MGSDKIHHHHHHMLKVRHLEIFRAVVKAGSVSAAARLLYVSQPAVTKTLRMLEEEIGLTLFLRVKGRLVCTPEAESILPEIERLFGSVQSIAETAREIRQGQRGSIRVSTVSMLATTIVARAVGEFRKTHPYVEFDVRALPTRHVVEYVNNNQADFGILDVAAPSGTLEVEEFCSADLRCVMRAAHPLASRKTITPRLLDNEALATFGEDTLTGWRLREAFRAQGRPFTSVFVSNSTPVLCALVREADAVALVDPFALMSRSFPDLVSRRFSPSVPVQPRFLFAPGRPRSVIVDQFVSQLRKTAGEMAMG” is “not soluble”; for “GPLGSTSLVQGLTPPPDFNQCLKNSPDEKFFSDFSNNMGSRKNPDPLATEEVPNQEQIPEEGFIHTQYGQKPEQPSGASAGHRFPQGYHSDKRRLSKASSKARSDDLSV” it is “soluble”. The same measure for “MQIMGLLEDKALVEAALFVAGRPLSVKELSKALGIKSLDYLEKLIELIASEYAERKSAIEVTKVAGDKWVMQVKQEYSQRVIHLMPKPELTAGELKTLALIAFLQPVEQSKIVKLRGSQAYEHIKRLLEMGLIYAEPYERTKLLGTTEKFAELYGFPENDPNLIREKFREVIHAEYEDLVKKLEETEANRNNPTT”: “soluble”; for “MAHHHHHHMESKVPLFLYFMVTNHPEVKQYTELLCHQVDQANRRLKDENFGDVYQEFGKDAGLAIKLGMVDCLQEPGLMAKFHIDPHMFPLIYFVRNKVFCDKMVGVVTESHVKEAVEAFIDDAKLESKSESEGASLFQKVRRQDDDDENAMTLIAAAHGKMQAGDPAKGKQLFEKALRMSMEDMEVVKKRYGVPNKKMTPELWAKLKREPCYNSAPEALCGLAMCAMASKQRDEAFRLAARVREEFPFAPQDMRGVAEAVVRIELIQVVDYDPDTDNYMRLLKFDELVSEPAQFYKHHLKRAVAFYVEGVAGQAIEECIRLIRAEPKLLSALKEGGIVPNDLRLGPTAVTPARQVIRAIFEALGPTNERVEKGRKLLQLYL”: “not soluble”. Consider “MNNQTILIIGAAGNNGMATIESLVSKQPKDTIVAAVRSTDKATLLKKKFPSIKTVIIDLDKPETLTAAYEGVTKVFMIPGNVEEREQHAKNAIDAAVQAGTVKQFLFYSVVGAEYEAILFAQQFRAGEKYLEQSGLNWTHLRTIFFQDNFFGWADGVKQGGLYFGIREGSFAPLNVADIGEMAANILTTSGHEHKAYNITGSELLSGEEMAKVFTDVTGKTVAYISPTKQQTLDSLLSTGWPQWQAEGMLELFEVFATNQAAVVSPDGEQLLGRPLTTLKDFIASNKAAFV”, for which the “soluble on expression in E. coli” value was “not soluble”. The entry for “MHKPLRIATVTATCAVAGAVLYTTGAASAGQSTANSTHEPYNIGVLAKDIDAYYGTTLDADGVYQASPDSPYAADLARVDAAAKKQIDRAARTAHHKHTRPAVVFDIDDTLLLSLDYEKKNNYGYDGATWAAYVDRADRPAVPGSPELARYADKKGVEVFYNSGLGEAQRAAAVENLKKAGADVNLDASHMFLKDKANPPSYLAHCATPGSWTCTTVQYKAGTRRHIERDLGYDVVANFGDQYSDLQGGYADRTYKLPNPTYFVE” is “soluble”.
